According to patent publication US20210072250A1 (Genentech, published 2021):

Key:
P6-Hpu [1] = biological target: T1, P6-Hpu; test: ELISA, unpurified hybridoma supernatant on peptide
T1 construct: Synthetic peptide

P6 = test: ELISA, unpurified hybridoma supernatant on peptide
endogenous eIF5A [2] = biological target: T2, endogenous eIF5A (human, UniProt P63241 2-154); test: Western blot of lysates of 293 cells transfected with DHS-DOHH and flag-eIF5A WT or K50A
T2 construct: also called endogenous eIF5A protein of 293T cells
T2 sequence (P63241 2-154 limits assumed): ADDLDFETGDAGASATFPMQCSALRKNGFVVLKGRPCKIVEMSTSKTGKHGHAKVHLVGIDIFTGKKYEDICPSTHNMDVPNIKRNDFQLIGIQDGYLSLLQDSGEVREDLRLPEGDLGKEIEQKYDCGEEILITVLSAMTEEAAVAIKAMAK

[3] = biological target: T3, Flag-tagged human K50A eIF5A (human, UniProt P63241 1-154); test: as above
T3 construct: also called K50A variant; K50A mutant eIF5A
T3 sequence (P63241 whole entry K50A): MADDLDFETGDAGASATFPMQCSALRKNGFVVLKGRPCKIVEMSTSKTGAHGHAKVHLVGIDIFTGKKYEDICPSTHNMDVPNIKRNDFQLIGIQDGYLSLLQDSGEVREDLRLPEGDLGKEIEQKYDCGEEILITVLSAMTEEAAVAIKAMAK

[4] = biological target: T4, Flag-tagged human wild-type eIF5A (human, UniProt P63241 1-154); test: as above
T4 construct: also called transfected wild-type eIF5A; WT eIF5A
T4 sequence (P63241 whole entry): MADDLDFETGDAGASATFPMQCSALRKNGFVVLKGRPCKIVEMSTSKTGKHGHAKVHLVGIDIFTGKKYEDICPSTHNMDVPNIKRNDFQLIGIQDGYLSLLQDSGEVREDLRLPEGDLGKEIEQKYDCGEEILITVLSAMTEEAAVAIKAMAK

P6-Hpu [5] = biological target: T1, P6-Hpu; test: SPR, ratio of KD values
P6-Hpu [6] = biological target: T1, P6-Hpu; test: SPR, Biacore T200, peptide captured, Fab flowed
endogenous eIF5A [7] = biological target: T2, endogenous eIF5A; test: immunoprecipitation from 293T cell lysate (diluted 1, 2, 4, 8-fold) with antibody on protein A beads, SDS-PAGE, Coomassie blue

B1: mAbHpu91 (antibody, V domains shown)
VH: QSVEESGGRLVTPGTPLTLTCTVSAFSLSTYTINWVRQAPGKGLEWIGDIWSDGNTYYANWAKGRFTISKTSTTVDLKITSPTTEDTATYFCARDSWDTSIYYGLDLWGQGTLVTVSS
VL: AIKMTQTPSSVSAAVGGTVTINCQASEDIKRYLAWYQQKPGQPPKLLIYAASKLASGVSSRFTGSGSGTEYTLTISGVQCDDAATYYCQQGYTSTNVNNAFGGGTEVVVK
notes: also called antibody Hpu91
Does B1 bind (P6-Hpu [1])?
Result: binds

Does B1 bind (P6)?
Result: no binding

Does B1 bind (endogenous eIF5A [2])?
Result: binds

Does B1 bind [3]?
Result: no binding

Does B1 bind [4]?
Result: binds

B2: FabHpu98.61 (Fab, V domains shown)
VH: QSVEESGGRLVTPGTPLTLTCTVSACSLYHCTMNWVRQAPGKGLEWIGDIYTDGNTYYANWAKGRFTISKTSTTVDLKITSPTTEDTATYFCARDSWDASSYYGLDLWGQGTLVTVSS
VL: AIKMTQTPSSVSAAVGGTVTINCQASEDIKRYLAWYQQKPGQPPKLLIYAASKLASGVSSRFKGSGSGTEYTLTISGVQCDDAATYYCQQGYTSSNVNNAFGGGTEVVVKG
Which “Fold improvement in KD over parent FabHpu98” value (P6-Hpu [5]) does the source give for B2 here?
Its value is greater than 4.4 fold.

And the Kd (P6-Hpu [6])?
The Kd was 229 nM.

B3: mAbHpu24 (antibody, V domains shown)
VH: QEQLKESGGRLVAPGTPLTLTCTVSGFDISDYAMIWVRQAPGKGLEWIGIIYGGSNKLAYAKWAKGRFTISRTSTTVDLKITSPTTEDTATYFCARGYGSMDGYDRLNLWGQGTLVTVSS
VL: AAVLTQTPSPVSAAVGGTVTISCQSSETVYRGDWLSWFQKKPGQPPKLLIYDASYLASGVSSRFSGSGSGTHFTLTISGVQCDDAATYYCLGGYYDDADDTFGGGTEVVVK
notes: also called antibody Hpu24
Does B3 bind (P6)?
Result: no binding

B4: FabHpu24 (Fab, V domains shown)
VH: QEQLKESGGRLVAPGTPLTLTCTVSGFDISDYAMIWVRQAPGKGLEWIGIIYGGSNKLAYAKWAKGRFTISRTSTTVDLKITSPTTEDTATYFCARGYGSMDGYDRLNLWGQGTLVTVSS
VL: AAVLTQTPSPVSAAVGGTVTISCQSSETVYRGDWLSWFQKKPGQPPKLLIYDASYLASGVSSRFSGSGSGTHFTLTISGVQCDDAATYYCLGGYYDDADDTFGGGTEVVVKG
B4 was tested. Which Kd (P6-Hpu [6]) did it give?
Its Kd is 176 nM.

B5: FabHpu24.B (Fab, V domains shown)
VH: QEQLKESGGRLVAPGTPLTLTCTVSGFDISDYAMIWVRQAPGKGLEWIGIIYGVINDLAYAKWAKGRFTISRTSTTVDLKITSPTTEDTATYFCARGYGSMDGYDRLNLWGQGTLVTVSS
VL: AAVLTQTPSPVSAAVGGTVTISCRSRQRVYLGDWLSWFQKKPGQPPKLLIYDASFRGDGVSSRFSGSGSGTHFTLTISGVQCDDAATYYCLGGYYDDADDTFGGGTEVVVKG
B5 was tested. Which “Fold improvement in KD over parent FabHpu24” value (P6-Hpu [5]) did it give?
Its value is 2.9 fold.

And the Kd (P6-Hpu [6])?
Its Kd is 61 nM.

B6: mAbHpu24.B (antibody, V domains shown)
VH: QEQLKESGGRLVAPGTPLTLTCTVSGFDISDYAMIWVRQAPGKGLEWIGIIYGVINDLAYAKWAKGRFTISRTSTTVDLKITSPTTEDTATYFCARGYGSMDGYDRLNLWGQGTLVTVSS
VL: AAVLTQTPSPVSAAVGGTVTISCRSRQRVYLGDWLSWFQKKPGQPPKLLIYDASFRGDGVSSRFSGSGSGTHFTLTISGVQCDDAATYYCLGGYYDDADDTFGGGTEVVVK
notes: also called antibody Hpu24.B
Does B6 bind (endogenous eIF5A [7])?
Result: binds
